# Measured values taken from US20100266532A1, “METHODS FOR INHIBITING SCARRING” (Renovo Limited, priority 2007, published 2010).
# B1: IL-10: interleukin-10, anti-scarring agent; amino acid sequence of human IL-10 in Sequence ID No. 3 (protein, listed as Homo sapiens)
# chain: MSPGQGTQSENSCTHFPGNLPNMLRDLRDAFSRVKTFFQMKDQLDNLLLKESLLEDFKGYLGCQALSEMIQFYLEEVMPQAENQDPDIKAHVNSLGENLKTLRLRLRRCHRFLPCENKSKAVEQVKNAFNKLQEKGIYKAMSEFDIFINYIEAYMTMKIRN
# How the values were obtained:
# [1] = test system: 1 cm incisional rat wounds; assay: Reduction in scarring of rat wounds treated with IL-10 in two incidences of treatment; assay type: in vivo; conditions: for percentage reduction in scarring compared to placebo control: approximately 24 hours apart
# Experimental: FIG. 13 is a graph showing the percentage reduction in scarring, as compared to placebo control, achieved in scars formed on healing of 1 cm incisional rat wounds treated with IL-10 administered by means of intradermal injection in two incidences of treatment, the first prior to wounding and the second approximately 24 hours later. Wounds dosed with IL-10 received either two injections of 500 ng/100 μl IL-10, two injections of 1000 ng/100 μl IL-10, or an escalating dose regime in accordance with the present invention, in which the first injection comprised 500 ng/100 μl IL-10 and the second injection comprised 1000 ng/100 μl IL-10.
# Arrow heads mark the ends of the scars 70 days post wounding.
# [2] = test system: inflammatory cells in 1 cm incisional rat wounds; assay: Percentage of inflammatory cells (CD68 staining) in rat wounds; assay type: in vivo; conditions: 3 days post treatment
# From the text: Wounds were excised from the experimental rats at 3 days post treatment, fixed in 10% (v/v) buffered formal saline, processed for histology and stained with CD68 to assess inflammatory cell numbers.
molecule,measurement,setting,value
B1,"inhibition of scarring, macroscopic images","[1]; escalating 500 then 1000 ng/100 μl versus 500 ng/100 μl twice, 70 days post wounding",greater inhibition of scarring
same,reduction in scarring versus constant doses,[1]; escalating: 500 ng/100 μl then 1000 ng/100 μl approximately 24 hours later,much larger magnitude of effect
same,percentage reduction in scarring compared to placebo control,[1]; two injections of 500 ng/100 μl,27.5%
same,percentage reduction in scarring compared to placebo control,[1]; two injections of 1000 ng/100 μl,22.8%
same,infiltration of inflammatory cells into the wound compared to controls,[2],reduces infiltration of inflammatory cells
same,inflammatory cell numbers versus same dose given twice,[2]; escalating: 500 ng/100 μl then 1000 ng/100 μl,surprisingly marked decrease in inflammatory cell numbers
